How the values were obtained:
[1] = molecular target: T1, gastrin-releasing peptide receptor (GRPR) (human, UniProt P30550 1-384); assay: competition with 125I-Bombesin on PC-3 cells, inhibitor 56 to 0.44 nM
T1 construct: whole, on cells; also called GRP receptor; GRP-receptor
Description: (§1) We used IMP333 as a non-specific control. […] A range of 56 to 0.44 nM was used as our inhibitory concentrations.

[2] = molecular target: T1, gastrin-releasing peptide receptor …; assay: competition with 125I-BBN on PC-3 cells, repeat experiment, inhibitor 250 to 2 nM
Description: as §1
This experiment was repeated using a commercially available BBN peptide. We increased the amount of inhibitory peptide from 250 to 2 nM to block the ¹²⁵I-BBN from binding to PC-3 cells.

T1 sequence (P30550 whole entry): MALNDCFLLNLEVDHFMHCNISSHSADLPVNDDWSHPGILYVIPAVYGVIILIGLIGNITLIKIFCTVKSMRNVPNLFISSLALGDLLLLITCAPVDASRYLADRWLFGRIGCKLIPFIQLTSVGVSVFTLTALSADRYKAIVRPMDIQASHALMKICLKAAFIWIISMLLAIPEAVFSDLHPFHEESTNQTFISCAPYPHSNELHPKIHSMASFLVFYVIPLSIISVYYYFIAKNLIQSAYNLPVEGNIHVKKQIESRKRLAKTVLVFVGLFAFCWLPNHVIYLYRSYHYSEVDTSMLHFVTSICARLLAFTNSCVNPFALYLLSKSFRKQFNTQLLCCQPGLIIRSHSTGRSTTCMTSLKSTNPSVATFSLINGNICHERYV

- IC50 [1]: 21.5 nM
- IC50 [2]: 35.9 nM
B1: IMP468 (NOTA-NH-(CH2)7CO-Gln-Trp-Val-Trp-Ala-Val-Gly-His-Leu-Met-NH2) (peptide)
peptide: QWVWAVGHLM
HELM: PEPTIDE1{[O=C(O)CN1CCN(CC(=O)O)CCN(CC(=O)[*:2])CC1].[O=C(CCCCCCCN[*:1])[*:2]].Q.W.V.W.A.V.G.H.L.M.[am]}$$$$V2.0
SMILES: CSCC[C@H](NC(=O)[C@H](CC(C)C)NC(=O)[C@H](Cc1c[nH]cn1)NC(=O)CNC(=O)[C@@H](NC(=O)[C@H](C)NC(=O)[C@H](Cc1c[nH]c2ccccc12)NC(=O)[C@@H](NC(=O)[C@H](Cc1c[nH]c2ccccc12)NC(=O)[C@H](CCC(N)=O)NC(=O)CCCCCCCNC(=O)CN1CCN(CC(=O)O)CCN(CC(=O)O)CC1)C(C)C)C(C)C)C(N)=O
notes: also called NOTA-conjugated bombesin derivative

Reference: patent US20150217006A1 (IMMUNOMEDICS, published 2015)
